B1: TPR t1 (parent)
chain: GACCAAUCUGCCCUCAGAGCUCGAGAACAUCUUCGGAUGCAGAGGAGGCAGGCUUCGGUGGCGCGAUAGCGCCAACGUCCUCAACCUCCAAUGCAUCCCACCACAUGAUGAUGCCUGAAGAGCCUUGGUUUUUUG

Variants of: B1
Test: polymerase ribozyme fitness, log enrichment relative to wild type (log ratio); higher = more active; in vitro selection for triplet polymerase activity
In short: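 One round of in vitro selection, in triplicate, was applied to PCR-built, transcribed mutant libraries of each subunit of a heterodimeric triplet polymerase ribozyme. The steps were annealing with a biotinylated primer, partner subunit and triplets, incubation frozen at −7 °C, gel excision of extended constructs, streptavidin-bead capture and RT-PCR. Fitness is the logarithm, base 2, of genotype enrichment over wild-type enrichment from inverse-variance-weighted replicate averages of Illumina-sequenced inputs and outputs, keeping genotypes with ≥10 input reads and ≥1 read per output.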

Variant | polymerase ribozyme fitness (log ratio)
C22U C98U | -4.36
G19A G71C | -3.41
A2G C62A C85A | -3.14
A41C U78C C86A U106A | -1.09
G69C C70U | -3.87
A16C C49A | -3.04
G17U G120C | -1.09
A29C G63U | -3.09
C12U C20U U21A G25U A43U C56A C115A A121U U130A | -8.29
G57A G93U | -1.69
A26C C40G U87C C101U C104U | -5.71
A29C G63C U78A U92A G120C | -5.6
G17C A43U G61A U87G G120C | -1.48
C123U G135U | -0.4
A37G C62A C85U | -5.14
G51U G60A | -2.28
G47C C102U | -2.99
A26U U59G C62U | -4.33
G10A G45C C56G C72U | -2.53
G48U C53G | -1.34
G61U U87G | 0.809
C11U A18C A27U A46U | -7.63
G19C G44A G61A U125G | -2.72
G39U C73U C99U | -4.75

Variant | polymerase ribozyme fitness (log ratio)
A46G C56A | -0.525
C53A U55G | 0.151
U14G U55C C70A G135U | -4.4
G42A G63C | -2.96
G39U G52C A95U C115A A118G | -3.5
C28U G63A | -3.62
G36A A37G G52C | -4.05
G42C U109A | -5.54
G57A U116G | -3.51
C12A C20A | -2.37
G45A C56U | -0.103
U21A G61A C88A G110A | -4.74
A26G G65A | -5.09
G48A C49U C53A A111U | -3.28
G42C C89U C102A | -5.66
C40A G61A | -0.734
C3U C104U | -0.0507
A5C G17U A50C C88A | -4.51
C20A C53A U59A G69C | -4
G44U C72G U78G C82G | -2.66
C20G U106A | -4.68
C4G G110C | -5.58
C11A G17C G19A G39A G69U C123G | -5.74
A5G G45A C49A G69U G93A U130G U131A | -2.39

Variant | polymerase ribozyme fitness (log ratio)
C20A U131G | -2.8
C8U G45A G52C C72A C123G | 1.37
A5U U21G U55C G61U C79U C114A U126A | -1.56
C11A G60U U87C U112C G117A U130C | -5.25
C73G G113C C123U G135A | -3.03
G23U G35A A46U G47U G71A G117C U130A | -6.34
A46U G47A C49U G61C C72U C85G | -2.44
G52C G117A | -1.64
C4U C79A U92C | -3.5
C49U U106A U116G | -4.54
C85G | -1.74
A16U C72G C104U | -1.7
G10U G19C A37U C72A | -1.54
C8G G47A C97A G120U | -2.93
G52C U59G A118G | -0.37
A41G C76U | -0.163
C34A G71C | -4.06
G47C G110A | -3.26
C22G C49A G127A U129G | -4.21
C53G U112C | 0.934
C56U G69U U112G A119U | -3.07
C13U A90U G117C | -3.61
U21C G58C | -0.199
C73A U92A | -2.45

Variant | polymerase ribozyme fitness (log ratio)
A41U G45A | -1.87
G51A G77C A95C | -4.86
C12U C15U U21G C101A | -3.11
C8G G19C C20U U21G U54C U87G | -4.85
A5C G60A C89G G93A A111G | -4.73
A6U C31G G47A G61A A91U U112A | -7.45
C64U C79A G110A | -3.21
C3U G117A U126A | -5.16
A27G C88U C115U | -4.85
G42U C101U G113C | -2.52
A37U C49A C86U G117C | -4.27
G60A C79A G110A | -3.84
C53U C88U | 0.129
U21A C72U | -2.3
G10A C97G | -3.95
C8U A27C C72U C80A | -6.42
C8G G10C G19U A37U C53G | -3.79
A50G G61C | -3.07
C62A G122U | 0.143
G47A G51A U130A | -4.79
A37U C49A U55C U112A | 0.525
C56G A95G A111U | -2.63
C94A G117U U125A | -5.92
U54G C82A G120U | -0.425

Variant | polymerase ribozyme fitness (log ratio)
C12U C73U A95U A111U | -2.86
U14A U112G | -0.736
G60C A95G G120A U130C | 0.59
C8U U21A A50C C53G G60A C88U U125C | -5.83
G48A A50C A84G | -0.336
C8U C11U G93U | -1.31
A5C U87G U96G C104U A121C | 0.96
U21C A26G | -2.38
C11A G60U G71C U87C U112C G117A U130C | -7.15
G10A A37U C53A C56G C85U G110U | -2.81
C4U U21A C115G | -4.19
A103U A111G | -3.31
A95U C102U C104A G110C G128U | -5.5
G63U C82A U126A | -3.13
C73U G77C G93A C124U U126G | -1.68
G69U C73U | 0.225
C20A C56U C80U | -4.41
A26G A83C A90G A121C | -0.49
C40A A41C C115A | -2.44
C11G C22U G36A | -4.08
C72U C115G | -2.33
C3U G42C A91C | -2.67
C4A A5U C15G C88U G120C | -4.83
U21G C123G U126G | 0.0716

Variant | polymerase ribozyme fitness (log ratio)
A26U C34U U59C C85A G113A G127U | -6.04
C20G C34U G63A C79U C99U A111C | -5.53
C72A U131A | -0.165
C11U G77A | -1.92
G23A A46C C124A | -5.92
A43U U87G C102U | -5.04
C11A G44C G48U | -4.1
C4U C15A G45C G61U C72A | -2.72
A50U G58A G63U G113C U129G | -7.01
A6U C53G C114A U131C | -1.89
A50U C72G C79U U112A | -3.66
C15G G52A | -2.6
C49G C62A G93U C104A G113U U116A | -7.29
C12U G39C U78A | 0.181
A46G C80U C94U | -1.95
C72G U129C U130A | -1.89
G57A G58A U81A U106C | -2.54
A5C U54C C82G C104A U131C | -1.29
A43U G69C C115A C124U | -3.09
G47U G51U | -4.87
G60U G61A U78G A84U C86A | -3.37
C15A U126A | -4.9
C53U U109A | -5.04
C13G G36A A95C | -4.52

Variant | polymerase ribozyme fitness (log ratio)
G58A C73U | -0.192
G93U G120U | -1.4
G23C A37G C40A G45A G57A C114A A118U | -7.04
C53A C88G C104A U129A | -3.51
G120A U129A | -0.0881
G36A U109A | -5.64
C123U U125G | 1.08
C53U G58U C70U | -0.221
G63A C86A | -2.33
C88U C101U U106G C123A | -1.23
C72G C101A U106A A119U C123U | -4.15
C8U C15G A16U C70U A118C G120A C124U | -2.69
C20U G35U | -5.32
A5U C8U C101G | -1.15
A46U G71A C85G G122A | -5.93
A5U C12U G61A | 0.0113
C8G C80G G113U | -5.81
C72A C88U G93C | -0.854
U7G G10A C49U U112G G135U | -0.92
C11G C114G | -2.38
C13G C40G C85G C89G C123G | -4.99
C34A G60C C97A C115G | -5.15
C13A A43G G110A C124G G128A | -6.67

— the RNAGym collection of RNA variant scans (doi:10.1073/pnas.2313332121)
